Test results reported in the Immune Epitope Database (IEDB).

Columns and labels:
HLA-B*07:02 = assay: IEDB peptide-MHC binding, purified MHC/competitive/radioactivity; filed as Kd, often an IC50 or EC50 that approximates it; ≥ and ≤ were set here for values at or beyond the usual limits of such assays
HLA-B*35:01 = assay: as above
HLA-B*51:01 = assay: as above
HLA-B*53:01 = assay: as above
HLA-B*54:01 = assay: as above
HLA-A*02:06 = assay: as above
HLA-A*68:02 = assay: as above
HLA-B*15:01 = assay: as above
HLA-A*02:02 = assay: as above; conditions: source organism: Vaccinia virus WR
HLA-A*02:03 = assay: as above; conditions: source organism: Vaccinia virus WR
HLA-A*23:01 = assay: as above; conditions: source organism: Dengue virus 3 Martinique/1243/1999
HLA-A*26:01 = assay: as above
HLA-B*08:01 = assay: as above; conditions: source organism: Vaccinia virus WR
HLA-A*01:01 = assay: as above; conditions: source organism: Dengue virus 4 Philippines/H241/1956
HLA-A*30:02 = assay: as above; conditions: source organism: Dengue virus 4 Philippines/H241/1956
HLA-A*24:03 = assay: IEDB peptide-MHC binding, purified MHC/direct/fluorescence; filed as Kd, often an IC50 or EC50 that approximates it; ≥ and ≤ were set here for values at or beyond the usual limits of such assays; conditions: source organism: West Nile virus
[1] = source organism: Mammarenavirus lassaense
[2] = source organism: Lymphocytic choriomeningitis virus (strain Armstrong)
[3] = source organism: Dengue virus 1 Brazil/97-11/1997
[4] = source organism: Dengue virus 3 Martinique/1243/1999
[5] = source organism: Dengue virus 4 Philippines/H241/1956
[6] = source organism: Mammarenavirus brazilense
[7] = source organism: Triticum aestivum
[8] = source organism: Vaccinia virus WR
[9] = source organism: SARS coronavirus Tor2

MPDCGMSVL
Kd (HLA-B*07:02; [1]): 100 nM
Kd (HLA-B*35:01; [1]): 4.63 nM
Kd (HLA-B*51:01; [1]): 2810 nM
Kd (HLA-B*53:01; [1]): 83.3 nM
Kd (HLA-B*54:01; [1]): 2720 nM

MPEWANFKF
Kd (HLA-B*07:02; [2]): 769 nM
Kd (HLA-B*35:01; [2]): 9.29 nM
Kd (HLA-B*51:01; [2]): ≥ 28200 nM
Kd (HLA-B*53:01; [2]): 13.5 nM
Kd (HLA-B*54:01; [2]): 1370 nM

MSIPATLFV
Kd (HLA-A*02:06; [3]): 12.1 nM
Kd (HLA-A*68:02; [3]): 0.63 nM

MSTYGWNIV
Kd (HLA-A*68:02; [4]): 39.4 nM

MVMTTTANWL
Kd (HLA-A*68:02; [5]): 6.51 nM

MVRILIGFLV
Kd (HLA-A*68:02; [5]): 401 nM

NPIVLHNGM
Kd (HLA-B*07:02; [6]): 1760 nM
Kd (HLA-B*35:01; [6]): 440 nM
Kd (HLA-B*51:01; [6]): ≥ 32400 nM
Kd (HLA-B*53:01; [6]): 10500 nM
Kd (HLA-B*54:01; [6]): ≥ 78100 nM

NPQAQGSV
Kd (HLA-B*07:02; [7]): 3660 nM
Kd (HLA-B*35:01; [7]): ≥ 87800 nM
Kd (HLA-B*51:01; [7]): 6060 nM
Kd (HLA-B*53:01; [7]): ≥ 87700 nM
Kd (HLA-B*54:01; [7]): 10900 nM

NTNKHMLEF
Kd (HLA-B*15:01; [8]): 11.8 nM

PPALNCYWPL
Kd (HLA-B*07:02; [9]): 12700 nM
Kd (HLA-B*35:01; [9]): ≥ 57900 nM
Kd (HLA-B*51:01; [9]): 1190 nM
Kd (HLA-B*53:01; [9]): ≥ 69900 nM
Kd (HLA-B*54:01; [9]): ≥ 37900 nM

QLFKYVPSA
Kd (HLA-A*02:02): 12.3 nM
Kd (HLA-A*02:03): 7.81 nM
Kd (HLA-A*02:06; [8]): 349 nM
Kd (HLA-B*15:01; [8]): 377 nM

QLKGQGKSRL
Kd (HLA-A*02:06; source organism: Homo sapiens): ≥ 42200 nM
Kd (HLA-A*68:02; source organism: Homo sapiens): ≥ 60000 nM

QPFLQPQLPY
Kd (HLA-B*07:02; [7]): 950 nM
Kd (HLA-B*35:01; [7]): 28.6 nM
Kd (HLA-B*51:01; [7]): 14500 nM
Kd (HLA-B*53:01; [7]): 4580 nM
Kd (HLA-B*54:01; [7]): ≥ 46600 nM

QPGLLSYVI
Kd (HLA-B*07:02; [6]): 12200 nM
Kd (HLA-B*35:01; [6]): 1100 nM
Kd (HLA-B*51:01; [6]): 2260 nM
Kd (HLA-B*53:01; [6]): 308 nM
Kd (HLA-B*54:01; [6]): 5060 nM

QPQQLPQF
Kd (HLA-B*07:02; [7]): 1460 nM
Kd (HLA-B*35:01; [7]): ≥ 87800 nM
Kd (HLA-B*51:01; [7]): ≥ 87300 nM
Kd (HLA-B*53:01; [7]): ≥ 87700 nM
Kd (HLA-B*54:01; [7]): ≥ 87700 nM

RPEMQEFEY
Kd (HLA-B*07:02; [8]): ≥ 68800 nM
Kd (HLA-B*35:01; [8]): 8.09 nM
Kd (HLA-B*51:01; [8]): ≥ 77500 nM
Kd (HLA-B*53:01; [8]): 16.7 nM
Kd (HLA-B*54:01; [8]): ≥ 78100 nM

RPLMESELV
Kd (HLA-B*07:02; [9]): 8200 nM
Kd (HLA-B*35:01; [9]): ≥ 24400 nM
Kd (HLA-B*51:01; [9]): 2370 nM
Kd (HLA-B*53:01; [9]): ≥ 42200 nM
Kd (HLA-B*54:01; [9]): ≥ 47500 nM

RTNAAMGAVF
Kd (HLA-A*23:01): 2050 nM
Kd (HLA-A*26:01; [4]): ≥ 57300 nM
Kd (HLA-B*15:01; [4]): 19.4 nM

SASSMVNGV
Kd (HLA-A*68:02; source organism: Dengue virus 2 Jamaica/1409/1983): 24.3 nM

SLPLPNFSSL
Kd (HLA-A*02:06; source organism: Homo sapiens): 641 nM
Kd (HLA-A*68:02; source organism: Homo sapiens): 1.19 nM

SMISRHCCI
Kd (HLA-B*08:01): 1.25 nM
Kd (HLA-B*15:01; [8]): 80.7 nM

SPKFTTSLSL
Kd (HLA-B*07:02; [9]): 8.39 nM
Kd (HLA-B*35:01; [9]): 7920 nM
Kd (HLA-B*51:01; [9]): 1090 nM
Kd (HLA-B*53:01; [9]): 1300 nM
Kd (HLA-B*54:01; [9]): ≥ 28800 nM

SSALLWMASV
Kd (HLA-A*68:02; [3]): 46.7 nM

STANIFRGSY
Kd (HLA-A*01:01): 1140 nM
Kd (HLA-A*26:01; [5]): 23.6 nM
Kd (HLA-A*30:02): 2.08 nM
Kd (HLA-B*15:01; [5]): 4.87 nM

TSAGVNMCTL
Kd (HLA-A*68:02; [3]): 6.97 nM

TSNHGVTATI
Kd (HLA-A*68:02; source organism: Dengue virus 4 Thailand/0348/1991): 129 nM

VSVNNVCHM
Kd (HLA-B*15:01; source organism: Vaccinia virus Copenhagen): 13.9 nM

VYRIMTRGL
Kd (HLA-A*24:03): 580 nM

YPLGQGSF
Kd (HLA-B*07:02; [7]): 5550 nM
Kd (HLA-B*35:01; [7]): 1520 nM
Kd (HLA-B*51:01; [7]): 1140 nM
Kd (HLA-B*53:01; [7]): 1660 nM
Kd (HLA-B*54:01; [7]): ≥ 53800 nM

YTPEGIIPTL
Kd (HLA-A*02:06; [5]): 21.3 nM
Kd (HLA-A*68:02; [5]): 264 nM

YVVIGLLFMI
Kd (HLA-A*02:06; [3]): 140 nM
Kd (HLA-A*68:02; [3]): 102 nM
